Laboratory results as given in the supplement of paper PMC5998384.

Tests used:
HeLa Kyoto [1] = test: solubility in G1/S (NP-40 vs SDS abundance) (log2 ratio); higher = more soluble; settings: cell cycle stage: G1/S
HeLa Kyoto [2] = test: melting temperature (median over replicates), in situ; higher = more thermally stable
HeLa Kyoto [3] = test: solubility change mitosis vs G1/S (difference of NP-40 vs SDS log2 ratios) (log2 ratio difference); higher = more soluble in mitosis
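Wherever melting temperature (median over replicates), in situ is given: HeLa Kyoto cells synchronized by double thymidine or nocodazole block, proteins quantified by TMT10plex mass spectrometry, three independent biological replicates.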
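Wherever solubility change mitosis vs G1/S (difference of NP-40 vs SDS log2 ratios) is given: synchronized HeLa Kyoto cells (double thymidine block for G1/S, nocodazole release for mitosis), protein amounts in NP-40 versus SDS lysates quantified by mass spectrometry, three biological replicates.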
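Wherever solubility in G1/S (NP-40 vs SDS abundance) is given: HeLa Kyoto cells arrested at G1/S by double thymidine block, proteins quantified by TMT10plex mass spectrometry in mild NP-40 versus SDS extracts, three biological replicates.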

| Sequence | solubility in G1/S (log2) (HeLa Kyoto [1]) | melting temperature (HeLa Kyoto [2]; cell cycle stage: G1/S) [°C] | melting temperature (HeLa Kyoto [2]; cell cycle stage: mitosis) [°C] | solubility change mitosis (log2) (HeLa Kyoto [3]) |
| --- | --- | --- | --- | --- |
| MRDNTSPISVILVSSGSRGNKLLFRYPFQRSQEHPASQTSKPRSRYAASNTGDHADEQDGDSRFSDVILATILATKSEMCGQKFELKIDNVRFVGHPTLLQHALGQISKTDPSPKREAPTMILFNVVFALRANADPSVINCLHNLSRRIATVLQHEERRCQYLTREAKLILALQDEVSAMADGNEGPQSPFHHILPKCKLARDLKEAYDSLCTSGVVRLHINSWLEVSFCLPHKIHYAASSLIPPEAIERSLKAIRPYHALLLLSDEKSLLGELPIDCSPALVRVIKTTSAVKNLQQLAQDADLALLQVFQLAAHLVYWGKAIIIYPLCENNVYMLSPNASVCLYSPLAEQFSHQFPSHDLPSVLAKFSLPVSLSEFRNPLAPAVQETQLIQMVVWMLQRRLLIQLHTYVCLMASPSEEEPRPREDDVPFTARVGGRSLSTPNALSFGSPTSSDDMTLTSPSMDNSSAELLPSGDSPLNQRMTENLLASLSEHERAAILSVPAAQNPEDLRMFARLLHYFRGRHHLEEIMYNENTRRSQLLMLFDKFRSVLVVTTHEDPVIAVFQALLP [NPRL3] | -0.108 | 50.8 | 52.5 | 0.129 |
| MRGAGPSPRQSPRTLRPDPGPAMSFFRRKVKGKEQEKTSDVKSIKASISVHSPQKSTKNHALLEAAGPSHVAINAISANMDSFSSSRTATLKKQPSHMEAAHFGDLGRSCLDYQTQETKSSLSKTLEQVLHDTIVLPYFIQFMELRRMEHLVKFWLEAESFHSTTWSRIRAHSLNTVKQSSLAEPVSPSKKHETTASFLTDSLDKRLEDSGSAQLFMTHSEGIDLNNRTNSTQNHLLLSQECDSAHSLRLEMARAGTHQVSMETQESSSTLTVASRNSPASPLKELSGKLMKSIEQDAVNTFTKYISPDAAKPIPITEAMRNDIIARICGEDGQVDPNCFVLAQSIVFSAMEQEHFSEFLRSHHFCKYQIEVLTSGTVYLADILFCESALFYFSEYMEKEDAVNILQFWLAADNFQSQLAAKKGQYDGQEAQNDAMILYDKYFSLQATHPLGFDDVVRLEIESNICREGGPLPNCFTTPLRQAWTTMEKVFLPGFLSSNLYYKYLNDLIHSVRGDEFLGGNVSLTAPGSVGPPDESHPGSSDSSASQSSVKKASIKILKNFDEAIIVDAASLDPESLYQRTYAGKMTFGRVSDLGQFIRESEPEPDVRKSKGSMFSQAMKKWVQGNTDEAQEELAWKIAKMIVSDIMQQAQYDQPLEKSTKL [AKAP10] | 0.00407 |  | 49.8 | -0.166 |
| MRLAGPLRIVVLVVSVGVTWIVVSILLGGPGSGFPRIQQLFTSPESSVTAAPRARKYKCGLPQPCPEEHLAFRVVSGAANVIGPKICLEDKMLMSSVKDNVGRGLNIALVNGVSGELIEARAFDMWAGDVNDLLKFIRPLHEGTLVFVASYDDPATKMNEETRKLFSELGSRNAKELAFRDSWVFVGAKGVQNKSPFEQHVKNSKHSNKYEGWPEALEMEGCIPRRSTAS [FAM3A] | -0.0403 | 51.9 | 52.8 | -0.0146 |
| MRMSDTVTVKDETATMKDLEAEVKDTTRVENLIKSENYGKILVEKNEHCIENNIDLQRPLQSFGQTGKRSKSSSKLKLVRSLAVCEESPPPPAPEISQENQEKIQIQLTQSFEKEEKPSKDEAEKEKASDKLPRKMLSRDSSQEYTDSTGIDLHEFLVNTLKNNPRDRMMLLKLEQEILDFIGNNESPRKKFPPMTSYHRMLLHRVAAYFGLDHNVDQSGKSVIVNKTSNTRIPDQKFNEHIKDDKGEDFQKRYILKRDNSSFDKDDNQMRIRLKDDRRSKSIEEREEEYQRARDRIFSQDSLCSQENYIIDKRLQDEDASSTQQRRQIFRVNKDASGRSTNSHQSSTENELKYSEPRPWSSTDSDSSLRNLKPAVTKASSFSGISVLTRGDSSGSSKSIGRLSKTGSESSGSVGSSTGSLSHIQQPLPGTALSQSSHGAPVVYPTVSTHSSLSFDGGLNGQVASPSTSFFLLPLEAAGIPPGSILINPQTGQPFINPDGSPVVYNPPMTQQPVRSQVPGPPQPPLPAPPQQPAANHIFSQDNLGSQFSHMSLARQPSADGSDPHAAMFQSTVVLQSPQQSGYIMTAAPPPHPPPPPPPPPPPPPLPPGQPVPTAGYPASGHPVSQPVLQQQGYIQQPSPQMPACYCAPGHYHSSQPQYRPVPSVHYNSHLNQPLPQPAQQTGYQVIPNQQQNYQGIVGVQQPQSQSLVSGQPNSIGNQIQGVVIPYTSVPTYQVSLPQGSQGIPHQTYQQPVMFPNQSNQGSMPTTGMPVYYSVIPPGQQNNLSSSVGYLQHPGSEQVQFPRTTSPCSSQQLQGHQCTAGPPPPPGGGMVMMQLSVPNNPQSCAHSPPQWKQNKYYCDHQRGQKCVEFSSVDNIVQHSPQLSSPIISPAQSPAPAQLSTLKTVRPSGPPLSIMPQFSRPFVPGQGDSRYPLLGQPLQYNPPAVLHGHIPNQQGQPGSRHGNRGRRQAKKAASTDLGAGETVVGKVLEITELPDGITRMEAEKLFGELFKIGAKIRWLRDPQSQPRRHPLCCGSGDNTANPERSKPSDLASTYTVLATFPSISAAQNALKKQINSVNKFKLRTSKKHYDFHILERASSQ [R3HDM1] | 0.189 | 52.3 | 50.9 | -0.239 |
| MRRSAAPSQLQGNSFKKPKFIPPGRSNPGLNEEITKLNPDIKLFEGVAINNTFLPSQNDLRICSLNLPSEESTREINNRDNCSGKYCFEAPTLATLDPPHTVHSAPKEVAVSKEQEEKSDSLVKYFSVVWCKPSKKKHKKWEGDAVLIVKGKSFILKNLEGKDIGRGIGYKFKELEKIEEGQTLMICGKEIEVMGVISPDDFSSGRCFQLGGGSTAISHSSQVARKCFSNPFKSVCKPSSKENRQNDFQNCKPRHDPYTPNSLVMPRPDKNHQWVFNKNCFPLVDVVIDPYLVYHLRPHQKEGIIFLYECVMGMRMNGRCGAILADEMGLGKTLQCISLIWTLQCQGPYGGKPVIKKTLIVTPGSLVNNWKKEFQKWLGSERIKIFTVDQDHKVEEFIKSIFYSVLIISYEMLLRSLDQIKNIKFDLLICDEGHRLKNSAIKTTTALISLSCEKRIILTGTPIQNDLQEFFALIDFVNPGILGSLSSYRKIYEEPIILSREPSASEEEKELGERRAAELTCLTGLFILRRTQEIINKYLPPKIENVVFCRPGALQIELYRKLLNSQVVRFCLQGLLENSPHLICIGALKKLCNHPCLLFNSIKEKECSSTCDKNEEKSLYKGLLSVFPADYNPLLFTEKESGKLQVLSKLLAVIHELRPTEKVVLVSNYTQTLNILQEVCKRHGYAYTRLDGQTPISQRQQIVDGFNSQHSSFFIFLLSSKAGGVGLNLIGGSHLILYDIDWNPATDIQAMSRVWRDGQKYPVHIYRLLTTGTIEEKIYQRQISKQGLCGAVVDLTKTSEHIQFSVEELKNLFTLHESSDCVTHDLLDCECTGEEVHTGDSLEKFIVSRDCQLGPHHQKSNSLKPLSMSQLKQWKHFSGDHLNLTDPFLERITENVSFIFQNITTQATGT [RAD54B] | -0.106 | 46.5 | 48.1 | -0.0255 |
| MSAKPEVSLVREASRQIVAGGSAGLVEICLMHPLDVVKTRFQIQRCATDPNSYKSLVDSFRMIFQMEGLFGFYKGILPPILAETPKRAVKFFTFEQYKKLLGYVSLSPALTFAIAGLGSGLTEAIVVNPFEVVKVGLQANRNTFAEQPSTVGYARQIIKKEGWGLQGLNKGLTATLGRHGVFNMVYFGFYYNVKNMIPVNKDPILEFWRKFGIGLLSGTIASVINIPFDVAKSRIQGPQPVPGEIKYRTCFKTMATVYQEEGILALYKGLLPKIMRLGPGGAVMLLVYEYTYSWLQENW [SLC25A21] | -0.251 | 56.9 | 55.7 | -0.00648 |
